Laboratory results from US20130102527A1.
One block for each substance: values may come before it.

Columns and labels:
[1] = biological target: chymotrypsin-like site (β5 subunit) of 26S proteasomes purified from rabbit muscle (rabbit) (UniProt G1T4Q9); test: cell-based or functional assay
[2] = biological target: caspase-like site (β1 subunit) of yeast 20S proteasome (S. cerevisiae) (UniProt P38624); test: cell-based or functional assay
[3] = biological target: trypsin-like site (β2 subunit) of 26S proteasomes purified from rabbit muscle (rabbit) (UniProt G1SWK8); test: cell-based or functional assay
[4] = biological target: proteasome β5 subunit (chymotrypsin-like site) in human cells and cell extracts (human) (UniProt P28074); test: competition with activity-based probe in living HEK-293 cells, 4 h; Chym-L site
[5] = biological target: proteasome β2 subunit (trypsin-like site) in human cells and cell extracts (human) (UniProt Q99436); test: competition with activity-based probe in living HEK-293 cells, 4 h; Tr-L site
[6] = biological target: proteasome β2 subunit (trypsin-like site) in human cells and cell extracts (human) (UniProt Q99436); test: cell-based or functional assay
[7] = biological target: proteasome β5 subunit (chymotrypsin-like site) in human cells and cell extracts (human) (UniProt P28074); test: cell-based or functional assay
[8] = biological target: proteasome β1 subunit (caspase-like site) in human cells and cell extracts (human) (UniProt P28072); test: cell-based or functional assay
proteasome β1 subunit (caspase-like site) in human cells and cell extracts (human), sequence (P28072 35-239): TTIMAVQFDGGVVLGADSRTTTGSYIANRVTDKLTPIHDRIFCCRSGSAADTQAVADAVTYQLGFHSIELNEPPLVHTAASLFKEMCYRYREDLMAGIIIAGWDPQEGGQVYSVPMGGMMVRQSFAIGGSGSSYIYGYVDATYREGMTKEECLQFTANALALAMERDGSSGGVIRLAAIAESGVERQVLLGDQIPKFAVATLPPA

proteasome β2 subunit (trypsin-like site) in human cells and cell extracts (human), sequence (Q99436 44-277): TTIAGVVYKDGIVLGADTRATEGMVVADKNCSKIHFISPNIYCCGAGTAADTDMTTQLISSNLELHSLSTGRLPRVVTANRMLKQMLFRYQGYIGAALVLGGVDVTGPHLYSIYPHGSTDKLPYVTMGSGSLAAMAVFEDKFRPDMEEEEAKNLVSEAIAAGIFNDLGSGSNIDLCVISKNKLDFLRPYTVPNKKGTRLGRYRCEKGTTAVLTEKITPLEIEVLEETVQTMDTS
proteasome β5 subunit (chymotrypsin-like site) in human cells and cell extracts (human), sequence (P28074 60-263): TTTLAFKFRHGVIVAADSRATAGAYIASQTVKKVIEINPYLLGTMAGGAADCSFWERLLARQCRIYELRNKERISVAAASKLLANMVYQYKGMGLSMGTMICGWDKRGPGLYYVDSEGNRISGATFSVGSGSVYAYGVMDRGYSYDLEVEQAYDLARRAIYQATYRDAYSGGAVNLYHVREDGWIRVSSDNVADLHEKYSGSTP
caspase-like site (β1 subunit) of yeast 20S proteasome (S. cerevisiae), sequence (P38624 20-215): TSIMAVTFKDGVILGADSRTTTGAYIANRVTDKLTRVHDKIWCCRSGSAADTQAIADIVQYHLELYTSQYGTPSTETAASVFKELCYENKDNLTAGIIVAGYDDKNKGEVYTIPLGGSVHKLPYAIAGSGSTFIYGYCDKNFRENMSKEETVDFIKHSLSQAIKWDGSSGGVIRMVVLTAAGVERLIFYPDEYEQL
trypsin-like site (β2 subunit) of 26S proteasomes purified from rabbit muscle (rabbit), sequence (G1SWK8 entry or part of it): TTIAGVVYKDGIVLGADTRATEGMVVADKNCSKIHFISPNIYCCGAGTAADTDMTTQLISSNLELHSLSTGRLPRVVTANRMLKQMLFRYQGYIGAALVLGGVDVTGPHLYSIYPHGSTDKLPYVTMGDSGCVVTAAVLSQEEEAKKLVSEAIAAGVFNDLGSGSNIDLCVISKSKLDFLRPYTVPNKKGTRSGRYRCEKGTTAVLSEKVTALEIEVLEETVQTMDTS
chymotrypsin-like site (β5 subunit) of 26S proteasomes purified from rabbit muscle (rabbit), sequence (G1T4Q9 entry or part of it): as the sequence (P28074 60-263) above, with E197D counted along it

IC50 (µM) for sites: Chym-L [1]: 3.9 µM
inhibition of caspase-like sites of yeast 20S proteasome [2]: > 200 µM
IC50 (µM) for sites: Tr-L [3]: 0.0066 µM
IC50 [4]: > 50 µM
IC50 [5]: 50 µM
Substance: N3-Phe-Phe(4-CH2NH2)-Leu-Phe(4-CH2NH2)-VS (52) (peptide)

Inhibition of active sites (% control): β2; KMS-12-BM, 0.012 µM LU-005, 1 h [6]: -21%
Inhibition of active sites (% control): β2; KMS-12-BM, 0.037 µM LU-005, 1 h [6]: -12%
Inhibition of active sites (% control): β2; KMS-12-BM, 0.11 µM LU-005, 1 h [6]: 4.7%
Inhibition of active sites (% control): β2; KMS-12-BM, 0.33 µM LU-005, 1 h [6]: 3%
Inhibition of active sites (% control): β2; KMS-12-BM, 1.0 µM LU-005, 1 h [6]: 29%
Inhibition of active sites (% control): β2; KMS-18, 0.037 µM LU-005, 1 h [6]: -13%
Inhibition of active sites (% control): β2; KMS-18, 0.11 µM LU-005, 1 h [6]: 12%
Inhibition of active sites (% control): β2; KMS-18, 0.33 µM LU-005, 1 h [6]: 24%
Inhibition of active sites (% control): β2; KMS-18, 1.0 µM LU-005, 1 h [6]: 38%
Inhibition of active sites (% control): β2; KMS-18, 3.0 µM LU-005, 1 h [6]: 50%
Inhibition of active sites (% control): β2; KMS-18, 9.0 µM LU-005, 1 h [6]: 62%
Inhibition of active sites (% control): β2; MM1.R, 0.004 µM LU-005, 1 h [6]: 6.5%
Inhibition of active sites (% control): β2; MM1.R, 0.011 µM LU-005, 1 h [6]: 5%
Inhibition of active sites (% control): β2; MM1.R, 0.043 µM LU-005, 1 h [6]: 5%
Inhibition of active sites (% control): β2; MM1.R, 0.11 µM LU-005, 1 h [6]: 23%
Inhibition of active sites (% control): β2; NCI-H929, 0.0014 µM LU-005, 1 h [6]: -9%
Inhibition of active sites (% control): β2; NCI-H929, 0.004 µM LU-005, 1 h [6]: -13%
Inhibition of active sites (% control): β2; NCI-H929, 0.011 µM LU-005, 1 h [6]: -6%
Inhibition of active sites (% control): β2; NCI-H929, 0.043 µM LU-005, 1 h [6]: 6%
Inhibition of active sites (% control): β2; NCI-H929, 0.11 µM LU-005, 1 h [6]: 11%
Inhibition of active sites (% control): β2; RPMI-8226, 0.012 µM LU-005, 1 h [6]: -21%
Inhibition of active sites (% control): β2; RPMI-8226, 0.037 µM LU-005, 1 h [6]: 1%
Inhibition of active sites (% control): β2; RPMI-8226, 0.11 µM LU-005, 1 h [6]: 3%
Inhibition of active sites (% control): β2; RPMI-8226, 0.33 µM LU-005, 1 h [6]: 13%
Inhibition of active sites (% control): β2; RPMI-8226, 1.0 µM LU-005, 1 h [6]: 22%
Inhibition of active sites (% control): β5; KMS-12-BM, 0.012 µM LU-005, 1 h [7]: 16%
Inhibition of active sites (% control): β5; KMS-12-BM, 0.037 µM LU-005, 1 h [7]: 48%
Inhibition of active sites (% control): β5; KMS-12-BM, 0.11 µM LU-005, 1 h [7]: 56%
Inhibition of active sites (% control): β5; KMS-12-BM, 0.33 µM LU-005, 1 h [7]: 81%
Inhibition of active sites (% control): β5; KMS-12-BM, 1.0 µM LU-005, 1 h [7]: 95%
Inhibition of active sites (% control): β5; KMS-18, 0.037 µM LU-005, 1 h [7]: 14%
Inhibition of active sites (% control): β5; KMS-18, 0.11 µM LU-005, 1 h [7]: 47%
Inhibition of active sites (% control): β5; KMS-18, 0.33 µM LU-005, 1 h [7]: 69%
Inhibition of active sites (% control): β5; KMS-18, 1.0 µM LU-005, 1 h [7]: 85%
Inhibition of active sites (% control): β5; KMS-18, 3.0 µM LU-005, 1 h [7]: 94%
Inhibition of active sites (% control): β5; KMS-18, 9.0 µM LU-005, 1 h [7]: 97%
Inhibition of active sites (% control): β5; MM1.R, 0.004 µM LU-005, 1 h [7]: 17%
Inhibition of active sites (% control): β5; MM1.R, 0.011 µM LU-005, 1 h [7]: 31%
Inhibition of active sites (% control): β5; MM1.R, 0.043 µM LU-005, 1 h [7]: 54%
Inhibition of active sites (% control): β5; MM1.R, 0.11 µM LU-005, 1 h [7]: 76%
Inhibition of active sites (% control): β5; NCI-H929, 0.0014 µM LU-005, 1 h [7]: 22%
Inhibition of active sites (% control): β5; NCI-H929, 0.004 µM LU-005, 1 h [7]: 22%
Inhibition of active sites (% control): β5; NCI-H929, 0.011 µM LU-005, 1 h [7]: 48%
Inhibition of active sites (% control): β5; NCI-H929, 0.043 µM LU-005, 1 h [7]: 72%
Inhibition of active sites (% control): β5; NCI-H929, 0.11 µM LU-005, 1 h [7]: 86%
Inhibition of active sites (% control): β5; RPMI-8226, 0.012 µM LU-005, 1 h [7]: 16%
Inhibition of active sites (% control): β5; RPMI-8226, 0.037 µM LU-005, 1 h [7]: 45%
Inhibition of active sites (% control): β5; RPMI-8226, 0.11 µM LU-005, 1 h [7]: 49%
Inhibition of active sites (% control): β5; RPMI-8226, 0.33 µM LU-005, 1 h [7]: 62%
Inhibition of active sites (% control): β5; RPMI-8226, 1.0 µM LU-005, 1 h [7]: 82%
Inhibition of active sites (% control): β1; KMS-12-BM, 0.012 µM LU-005, 1 h [8]: -34%
Inhibition of active sites (% control): β1; KMS-12-BM, 0.037 µM LU-005, 1 h [8]: -1%
Inhibition of active sites (% control): β1; KMS-12-BM, 0.11 µM LU-005, 1 h [8]: 3%
Inhibition of active sites (% control): β1; KMS-12-BM, 0.33 µM LU-005, 1 h [8]: 6%
Inhibition of active sites (% control): β1; KMS-12-BM, 1.0 µM LU-005, 1 h [8]: 11%
Inhibition of active sites (% control): β1; KMS-18, 0.037 µM LU-005, 1 h [8]: 0%
Inhibition of active sites (% control): β1; KMS-18, 0.11 µM LU-005, 1 h [8]: 21%
Inhibition of active sites (% control): β1; KMS-18, 0.33 µM LU-005, 1 h [8]: 29%
Inhibition of active sites (% control): β1; KMS-18, 1.0 µM LU-005, 1 h [8]: 32%
Inhibition of active sites (% control): β1; KMS-18, 3.0 µM LU-005, 1 h [8]: 39%
Inhibition of active sites (% control): β1; KMS-18, 9.0 µM LU-005, 1 h [8]: 42%
Inhibition of active sites (% control): β1; MM1.R, 0.004 µM LU-005, 1 h [8]: 6%
Inhibition of active sites (% control): β1; MM1.R, 0.011 µM LU-005, 1 h [8]: 3%
Inhibition of active sites (% control): β1; MM1.R, 0.043 µM LU-005, 1 h [8]: 6%
Inhibition of active sites (% control): β1; MM1.R, 0.11 µM LU-005, 1 h [8]: 27%
Inhibition of active sites (% control): β1; NCI-H929, 0.0014 µM LU-005, 1 h [8]: -14%
Inhibition of active sites (% control): β1; NCI-H929, 0.004 µM LU-005, 1 h [8]: -7%
Inhibition of active sites (% control): β1; NCI-H929, 0.011 µM LU-005, 1 h [8]: 5.5%
Inhibition of active sites (% control): β1; NCI-H929, 0.043 µM LU-005, 1 h [8]: 15%
Inhibition of active sites (% control): β1; NCI-H929, 0.11 µM LU-005, 1 h [8]: 6%
Inhibition of active sites (% control): β1; RPMI-8226, 0.012 µM LU-005, 1 h [8]: -34%
Inhibition of active sites (% control): β1; RPMI-8226, 0.037 µM LU-005, 1 h [8]: 16%
Inhibition of active sites (% control): β1; RPMI-8226, 0.11 µM LU-005, 1 h [8]: 23%
Inhibition of active sites (% control): β1; RPMI-8226, 0.33 µM LU-005, 1 h [8]: 37%
Inhibition of active sites (% control): β1; RPMI-8226, 1.0 µM LU-005, 1 h [8]: 37%
Substance: LU-005 (peptide)
